Where a chain is given by its changes, count along the chain named. Names may count otherwise. One block for each molecule: values may come before it.
Experiments:
[1] = target: wt FRB (K2095 T2098 W2101) (Homo sapiens, UniProt P42345+P62942); conditions: cited from earlier work
[2] = target: FRB-KTF (Homo sapiens, UniProt P42345+P62942, W2101F); conditions: cited from earlier work
[3] = target: FRB-PLF (Homo sapiens, UniProt P42345+P62942, K2095P/T2098L/W2101F); conditions: cited from earlier work
Sequence of FRB-PLF (P42345 2012-2144 K2095P/T2098L/W2101F limits assumed): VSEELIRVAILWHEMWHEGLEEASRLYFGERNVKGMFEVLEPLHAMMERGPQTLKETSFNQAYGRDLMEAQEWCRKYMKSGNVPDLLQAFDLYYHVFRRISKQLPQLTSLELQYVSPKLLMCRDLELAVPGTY
Sequence of FRB-PLF (P62942 2-108 limits assumed): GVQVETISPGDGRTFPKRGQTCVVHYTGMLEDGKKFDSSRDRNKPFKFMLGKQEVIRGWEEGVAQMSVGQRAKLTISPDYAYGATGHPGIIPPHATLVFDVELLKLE

[4] = system: chimeric Caspase-9 polypeptide; assay: Caspase-9 mutant classes and basal activity (Table 5); format: cell-based; conditions: Caspase-9 mutant class; for Basal Activity: basal (ligand-independent) signaling compared with unmodified chimeric Caspase-9
Sequence of chimeric Caspase-9 polypeptide (P62942 2-108 F37V limits assumed): as the sequence (P62942 2-108 limits assumed) above, with F36V counted along it

Sequence of wt FRB (K2095 T2098 W2101) (P42345 2012-2144 limits assumed): as the sequence (P42345 2012-2144 K2095P/T2098L/W2101F limits assumed) above, with P84K, L87T, F90W counted along it
Sequence of wt FRB (K2095 T2098 W2101) (P62942 2-108 limits assumed): as the sequence (P62942 2-108 limits assumed) above
Sequence of FRB-KTF (P42345 2012-2144 W2101F): as the sequence (P42345 2012-2144 K2095P/T2098L/W2101F limits assumed) above, with P84K, L87T counted along it
Sequence of FRB-KTF (P62942 2-108): as the sequence (P62942 2-108 limits assumed) above

Molecule: S-Butanesulfonamidorap [AP23050]
EC50 [1]: ~2.7 nM
EC50 [2]: > 200 nM

Molecule: CO[C@@H]1C[C@H](C[C@@H](C)[C@@H]2CC(=O)[C@H](C)/C=C(\C)[C@@H](O)[C@@H](OC)C(=O)[C@H](C)C[C@H](C)/C=C/C=C/C=C(\C)[C@H](OC(C)C)C[C@@H]3CC[C@@H](C)[C@@](O)(O3)C(=O)C(=O)N3CCCC[C@H]3C(=O)O2)CC[C@H]1O [R-Isopropoxyrapamycin]
EC50 [1]: ~300 nM
EC50 [3]: ~8.5 nM

Basal Activity [4]: Increased
B1: F326K (protein)
chain: GFGDVGALESLRGNADLAYILSMEPCGHCLIINNVNFCRESGLRTRTGSNIDCEKLRRRFSSLHFMVEVKGDLTAKKMVLALLELARQDHGALDCCVVVILSHGCQASHLQFPGAVYGTDGCPVSVEKIVNIFNGTSCPSLGGKPKLFFIQACGGEQKDHGFEVASTSPEDESPGSNPEPDATPFQEGLRTKDQLDAISSLPTPSDIFVSYSTFPGFVSWRDPKSGSWYVETLDDIFEQWAHSEDLQSLLLRVANAVSVKGIYKQMPGCFNFLRKKLFFKTSASRA

Basal Activity [4]: Decreased
B2: S196D (protein)
chain: B1 chain with S62D, K192F

B3: D330A-Y153F (protein)
chain: B1 chain with Y19F, K192F, D196A
Catalytic activity (class 'Catalytically dead') [4]: dead

Basal Activity [4]: Increased
B4: L329G (protein)
chain: B1 chain with K192F, L195G

B5: F404A (protein)
chain: B1 chain with K192F, F270A
Catalytic activity (class 'Catalytically dead') [4]: dead

B6: G402I (protein)
chain: B1 chain with K192F, G268I
Catalytic activity (class 'Catalytically dead') [4]: dead

B7: F406L (protein)
chain: B1 chain with K192F, F272L
Catalytic activity (class 'Catalytically dead') [4]: dead

B8: D315A-D330A (protein)
chain: B1 chain with D181A, K192F, D196A
Catalytic activity (class 'Catalytically dead') [4]: dead

B9: G402Y (protein)
chain: B1 chain with K192F, G268Y
Catalytic activity (class 'Catalytically dead') [4]: dead

B10: D330A-Y153A (protein)
chain: B1 chain with Y19A, K192F, D196A
Catalytic activity (class 'Catalytically dead') [4]: dead

B11: C403P (protein)
chain: B1 chain with K192F, C269P
Catalytic activity (class 'Catalytically dead') [4]: dead

Basal Activity [4]: Increased
B12: Q328R (protein)
chain: B1 chain with K192F, Q194R

B13: G402Q (protein)
chain: B1 chain with K192F, G268Q
Catalytic activity (class 'Catalytically dead') [4]: dead

B14: G402A (protein)
chain: B1 chain with K192F, G268A
Catalytic activity (class 'Catalytically dead') [4]: dead

Basal Activity [4]: Decreased
B15: S144D (protein)
chain: B1 chain with S10D, K192F

Basal Activity [4]: Increased
B16: D327G (protein)
chain: B1 chain with K192F, D193G

Basal Activity [4]: Increased
B17: D327K (protein)
chain: B1 chain with K192F, D193K

Basal Activity [4]: Increased
B18: Q328K (protein)
chain: B1 chain with K192F, Q194K

Basal Activity [4]: Decreased
B19: S144A (protein)
chain: B1 chain with S10A, K192F

B20: D330A-T317E (protein)
chain: B1 chain with T183E, K192F, D196A
Catalytic activity (class 'Catalytically dead') [4]: dead

Basal Activity [4]: Increased
B21: D327R (protein)
chain: B1 chain with K192F, D193R

B22: F404S (protein)
chain: B1 chain with K192F, F270S
Catalytic activity (class 'Catalytically dead') [4]: dead

Basal Activity [4]: Decreased
B23: T317S (protein)
chain: B1 chain with T183S, K192F

B24: 402GCFNF^406AAAAA (protein, UniProt P55211 1-416, looked up, variant G402A C403A F404A N405A F406A)
chain: MDEADRRLLRRCRLRLVEELQVDQLWDALLSRELFRPHMIEDIQRAGSGSRRDQARQLIIDLETRGSQALPLFISCLEDTGQDMLASFLRTNRQAAKLSKPTLENLTPVVLRPEIRKPEVLRPETPRPVDIGSGGFGDVGALESLRGNADLAYILSMEPCGHCLIINNVNFCRESGLRTRTGSNIDCEKLRRRFSSLHFMVEVKGDLTAKKMVLALLELAQQDHGALDCCVVVILSHGCQASHLQFPGAVYGTDGCPVSVEKIVNIFNGTSCPSLGGKPKLFFIQACGGEQKDHGFEVASTSPEDESPGSNPEPDATPFQEGLRTFDQLDAISSLPTPSDIFVSYSTFPGFVSWRDPKSGSWYVETLDDIFEQWAHSEDLQSLLLRVANAVSVKGIYKQMPAAAAALRKKLFFKTS
Catalytic activity (class 'Catalytically dead') [4]: dead

B25: 402GCFNF^406CIVSM (Casp-3) (protein, UniProt P55211 1-416, looked up, variant G402C C403I F404V N405S F406M)
chain: B24 chain with A402C, A403I, A404V, A405S, A406M
Catalytic activity (class 'Catalytically dead') [4]: dead

B26: 402GCFNF^406QPTFT (Casp-8) (protein, UniProt P55211 1-416, looked up, variant G402Q C403P F404T N405F F406T)
chain: B24 chain with A402Q, A403P, A404T, A405F, A406T
Catalytic activity (class 'Catalytically dead') [4]: dead

B27: 402GCFNF^406YCSTL (Casp-2) (protein, UniProt P55211 1-416, looked up, variant G402Y F404S N405T F406L)
chain: B24 chain with A402Y, A403C, A404S, A405T, A406L
Catalytic activity (class 'Catalytically dead') [4]: dead

Reference: patent publication US20210147507A1, “METHODS TO AUGMENT OR ALTER SIGNAL TRANSDUCTION” (Bellicum Pharmaceuticals, Inc., priority 2017, published 2021)
